According to patent US20220265772A1, “USES OF DAN FAMILY BMP ANTAGONISTS FOR INHIBITING OCULAR NEOVASCULARIZATION AND TREATING OCULAR CONDITIONS” (9636137 Canada Inc., priority 2019, published 2022):

Columns and labels:
[1] = test system: HUVECs; assay: VEGF-induced tube formation (sprouting assay) of HUVECs in 3D fibrin gels; assay type: cell-based, human; settings: for VEGF-induced tube formation: HUVECs in fibrin gel, 25 ng/ml VEGF, DAND5 0, 15, 30 or 60 ng/ml
Experimental: Sprouting assays were performed as previously described (2). Briefly, HUVECs (250,000 cells/well in 6-well plates) were resuspended in 300 μl fibrinogen solution (2.5 mg/ml fibrinogen, Sigma-Aldrich) in EBM-2 (Lonza) supplemented with 2% FBS and 50 μg/ml aprotinin (Sigma-Aldrich), and plated on top of a pre-coated fibrin layer (400 μl fibrinogen solution clotted with 1 U thrombin (Sigma-Aldrich) for 20 min at 37° C.). The second layer of fibrin was clotted for 1 hr at 37° C. NHDF cells (250,000 cells/well), in EBM-2 supplemented with 2% FBS and 25 ng/ml VEGF, with or without DAND5 (0, 15, 30 or 60 ng/ml), were then plated on top of the fibrin layers. Cultures were incubated at 37° C., 5% CO2.
To test whether DAND5 affects sprouting angiogenesis, human umbilical vein endothelial cells (HUVECs) were cultured in 3D fibrin gels and tube formation was induced with VEGF as previously described (2).

[2] = test system: HUVECs; assay: Endothelial cell proliferation (phospho-histone H3, neutral red, EdU flow cytometry); assay type: cell-based, human
Experimental: Sub-confluent HUVECs were cultured overnight in starvation medium (EBM2-1% FBS) in the presence or absence of 60 ng/ml DAND5, followed by VEGF stimulation for 1 hour. HUVECs were subjected with a pulse of 5-ethynyl-2′-deoxyuridine (EdU) for 1 hour, and flow cytometry analysis of EdU incorporation was performed as previously described.
The effects of DAND5 on EC proliferation were assessed by treating sub-confluent HUVECs with complete EC medium for 18 hours with DAND5. Cell mitosis was measured by evaluating the proportion phospho-histone H3 (PH3)-positive ECs following DAND5 treatment.

[3] = test system: retinal vessels and photoreceptors; assay type: in vivo, mouse
Source text: FIG. 4 is a panel with a schematic, images and bar graphs showing that chronic intravitreal injections of Dand5 inhibits developmental angiogenesis but is not detrimental to photoreceptor survival. FIG. 4A: Schematic representation of experimental set-up (B-E). Neonatal pups received intravitreal injections of either PBS, Dand5, Flt1-Fc on P1, P7 and P14. Retinas were harvested on P28. FIG. 4B: Isolectin B4 staining of flatmount retinas (P28) described in FIG. 3A. FIG. 4C: Quantification of branch points and vessel length in retinas described in FIG. 3B (n=6 mice/group; *p<0.05, **p<0.01). FIG. 4D: Immunofluorescent images of sectioned retinas described in FIG. 3A stained with antibodies against s-opsin and rhodopsin and DAPI (nuclei). FIG. 4E: Quantification of the number of nuclei present in the outer nuclear layer of retinas treated as described in (4A) (n=4, ns). Patients affected by ocular neovascular diseases such as retinopathy of prematurity (ROP) and wet AMD are typically treated with VEGF inhibitors to control pathological angiogenesis. […] Particularly, studies have shown that long-term treatment with VEGF inhibitors in mice leads to increased photoreceptor apoptosis and thinning of the neural retina (4). We therefore addressed the long-term effects of DAND5 on photoreceptors and the neural retina. […]

[4] = test system: VEGF signaling; assay: VEGF signaling and VEGF receptor levels in HUVECs (immunoblotting); assay type: cell-based, human
Experimental: FIG. 6A: HUVECs were grown in complete media were in the absence or presence of Dand5 or IWR1 for up to 24 hours. Protein extracts were analyzed by immunoblotting (representative image of n=3 experiments). FIG. 6C: HUVECs were grown in low serum media for 16 h in the absence or presence of 60 ng/mL of Dand5. VEGF signaling was induced by addition of 25 ng/mL of rhVEGF for up to 60 minutes. Protein extracts were analyzed by immunoblotting (representative image of n=3). FIG. 6D: Quantification of the mean gray value of phosphorylated proteins normalized to the mean gray value of β-Actin of immunoblots in FIG. 6C (n=3, ns). FIG. 6E: HUVECs were plated in the presence or absence of 60 ng/mL of Dand5. Proteins extracts were analyzed for expression of VEGF receptors (representative image of n=3).
Cells were washed with cold PBS and extracted in Laemmli's buffer, followed by sonication. Samples were run on SDS-PAGE gels and transferred onto nitrocellulose membranes. Membranes were blocked with 5% Bovine Serum Albumin (BSA) and probed with primary antibodies overnight at 4° C.: beta-Catenin (Cell Signaling Technology), phospho-beta-catenin (Cell Signaling Technology), Axin2 (Cell Signaling Technology), beta-Actin (Santa Cruz Technologies). HRP-conjugated secondary antibodies (Vector Laboratories) were used to detect primary antibodies.
HUVECs were starved overnight in the presence or absence of DAND5, followed by VEGF stimulation for up to 60 minutes. […] Likewise, VEGFR2 and VEGFR1 levels were unaffected upon HUVECs exposure to DAND5 for 0.5-24 h (FIG. 6 E, F).

[5] = test system: HUVECs; assay: Scratch (wound healing) assay, endothelial cell migration; assay type: cell-based, human
Experimental: Confluent HUVEC monolayers were grown in 6-well plates. Cells were starved 18 hours in EBM-2 medium with 1% FBS. A horizontal wound was created using a sterile 200 μl pipette tip. Next, the cells were washed with EBM2 at 37° C. and incubated in EBM-2 supplemented with VEGF-A (25 ng/ml) or DAND5 (60 ng/ml) at 37° C. for 16 hours. Pictures of scratch wounds were taken just before stimulation (time 0) and after 16 h. Migration % was calculated using ImageJ™ software.
To evaluate the cellular mechanisms underlying the inhibitory effects of DAND5 on endothelial cells sprouting, we assessed the effects of DAND5 on endothelial cell migration and proliferation. Endothelial cell migration plays an essential role in neovascularization, as endothelial tip cells will need to migrate in response to VEGF, and constitutes one of the first steps of the angiogenic response. To address the effects of DAND5 on EC migration, HUVECs were subjected to a wound healing assay. Briefly, a scratch was performed on a confluent monolayer of HUVECs, and wound closure was evaluated at the time of the scratch and again after […].

B1: DAND5: human recombinant DAND5/COCO biologically active fragment produced in E. coli, predicted 18.2 kDa monomer, R&D systems 3047-CC-050 (protein)
chain: MRPEPQSPRPQSWAAANQTWALGPGALPPLVPASALGSWKAFLGLQKARQLGMGRLQRGQDEVAAVTLPLNPQEVIQGMCKAVPFVQVFSRPGCSAIRLRNHLCFGHCSSLYIPGSDPTPLVLCNSCMPARKRWAPVVLWCLTGSSASRRRVKISTMLIEGCHCSPKA
- VEGF-induced tube formation [1]: efficiently suppressed VEGF-induced tube formation in a dose-dependent manner
- VEGF-induced tube formation ([1]; listed as Dand5): inhibited tube formation in a dose dependent manner
- vascular tube area ([1]; quantification of endothelial tubes, increasing concentrations of DAND5): significant reduction in vascular tube area with increasing concentrations
- EdU incorporation ([2]; HUVECs, 60 ng/ml DAND5 overnight, VEGF stimulation): reduced Edu incorporation in response to VEGF stimulation
- proliferation of cultured ECs, cell numbers by neutral red incorporation ([2]; HUVECs, 6 days): prevented the proliferation of cultured ECs
- phospho-histone H3 (PH3) staining, mitotic index ([2]; sub-confluent HUVECs, complete EC medium, 18 hours): significant decrease in PH3 staining
- photoreceptor apoptosis (cleaved-caspase 3 staining) ([3]; mouse, in vivo): did not reveal significant apoptosis
- retinal blood vessel formation / density of retinal vessels ([3]; repeated injections from P1 for 4 weeks): striking reduction in blood vessel formation
- VEGFR2 phosphorylation at Y1175 ([4]; HUVECs cultured in the presence of DAND5): unaffected
- VEGFR2 and VEGFR1 levels ([4]; HUVECs exposed for 0.5-24 h): unaffected
- VEGF-induced phosphorylation of VEGF downstream effectors ([4]; HUVECs starved overnight with DAND5, VEGF stimulation up to 60 minutes): no significant decrease in VEGF-induced phosphorylation of VEGF downstream effectors
- polarization of the Golgi apparatus towards the leading edge ([5]; cells at the wound edge): did not significantly affect polarization of the Golgi apparatus towards the leading edge
- wound closure (VEGF-induced cell migration) ([5]; confluent HUVEC monolayer, DAND5 60 ng/ml, evaluated after 18 hours): significantly delayed wound closure compared to control treatment
